{"source": "paper PMC3397996", "about": "“Ultramarine, a Chromoprotein Acceptor for Förster Resonance Energy Transfer” (PLoS ONE, 2012)", "molecules": {"B1": {"name": "Rtms5 (natural protein)", "chain": "MSVIATQMTYKVYMSGTVNGHYFEVEGDGKGRPYEGEQTVKLTVTKGGPLPFAWDILSPQCQYGSIPFTKYPEDIPDYVKQSFPEGFTWERIMNFEDGAVCTVSNDSSIQGNCFTYHVKFSGLNFPPNGPVMQKKTQGWEPHSERLFARGGMLIGNNFMALKLEGGGHYLCEFKTTYKAKKPVKMPGYHYVDRKLDVTNHNKDYTSVEQCEISIARKPVVA", "notes": "Cloned in pQE9N; also called wildtype Rtms5; source: E. coli BL21-DE3 (pQE9N:Rtms5), purified (Ni-NTA)"}}, "key": {"[1]": {"target": "Rtms5^F162R (Montipora efflorescens)", "assay": "SEC; Superdex S200 10/30, 100 µl of 1 mg/ml applied, 20 mM Tris-HCl pH 8.0, 300 mM NaCl, column calibrated with molecular weight standards; self-association"}, "HcRed": {"target": "HcRed", "assay": "SEC; Superdex S200 10/30, 100 µl of 1 mg/ml applied, 20 mM Tris-HCl pH 8.0, 300 mM NaCl, column calibrated with molecular weight standards; self-association"}, "[2]": {"target": "Rtms5^S125R/F162P (Montipora efflorescens)", "assay": "AUC; sedimentation velocity, 20°C, 300 mM NaCl, 20 mM Tris pH 8.0, samples at 0.1 mg/ml and 1.0 mg/ml, 40,000 rpm; self-association"}, "[3]": {"target": "Rtms5^S125R/F162P (Montipora efflorescens)", "assay": "SEC; gel filtration, data not shown; self-association"}, "[4]": {"target": "Rtms5^S125R (Montipora efflorescens)", "assay": "SEC; Superdex S200 10/30, 100 µl of 1 mg/ml applied, 20 mM Tris-HCl pH 8.0, 300 mM NaCl, column calibrated with molecular weight standards; self-association"}, "[5]": {"target": "the molecule itself", "assay": "AUC; sedimentation velocity, 20°C, 300 mM NaCl, 20 mM Tris pH 8.0, samples at 0.1 mg/ml and 1.0 mg/ml, 40,000 rpm; self-association"}}, "data": [{"molecule": "Rtms5^F162R (natural protein)", "values": [{"measurement": "stoichiometry N", "setting": "[1]", "result": 2}]}, {"molecule": "HcRed", "values": [{"measurement": "stoichiometry N", "setting": "HcRed", "result": 2}]}, {"molecule": "Rtms5^S125R/F162P (natural protein)", "values": [{"measurement": "stoichiometry N", "setting": "[2]", "result": 2}, {"measurement": "stoichiometry N", "setting": "[3]", "result": 2}]}, {"molecule": "Rtms5^S125R (natural protein)", "values": [{"measurement": "stoichiometry N", "setting": "[4]", "result": 2}]}, {"molecule": "B1", "values": [{"measurement": "stoichiometry N", "setting": "[5]", "result": 4}]}]}
